Reference: patent US12251377B2, “Anticoagulant compositions and uses thereof” (University of Rochester, priority 2019, dated 2025)

B1: Idarucizumab: anti-dabigatran antibody, reversal agent (antibody, chains of the INN, looked up, V domains shown)
VH: QVQLQESGPGLVKPSETLSLTCTVSGFSLTSYIVDWIRQPPGKGLEWIGVIWAGGSTGYNSALRSRVSITKDTSKNQFSLKLSSVTAADTAVYYCASAAYYSYYNYDGFAYWGQGTLVTVSS
VL: DVVMTQSPLSLPVTLGQPASISCKSSQSLLYTDGKTYLYWFLQRPGQSPRRLIYLVSKLDSGVPDRFSGSGSGTDFTLKISRVEAEDVGVYYCLQSTHFPHTFGGGTKVEIK
modifications: Fab
notes: anti-dabigatran antibody, reversal agent

What was measured:
[1] = cited from earlier work
[2] = test system: coagulation of human blood; test: Cardiopulmonary bypass circuit simulation (arterio-venous loop); format: biochemical; conditions: whole duration of the bypass circuit experiment, 37° C.
Method: (§1) In the examples below, studies were carried out to examine effects of dabigatran on coagulation of human blood. The studies were approved by the Institutional Review Board (University of Rochester RSRB, Rochester, NY) and informed consent was obtained from all subjects. Six healthy non-pregnant donors between 18-70 years old were recruited for the study. Subjects were excluded from the recent infections, disorders of immune system, hematological disorders including prior history of clotting issues, malignancies. Current medications and herbal supplements were recorded. Standard phlebotomy procedures performed by trained personal were used to collect no more than 250 ml of whole blood in two months. The collected blood was anticoagulated with 0.109 M Na citrate and tested within four hours. Dabigatran was purchased from CLEARSYNTH (Ontario, Canada). The study was initiated in three steps: Effect of high-dose Dabigatran on coagulation of human blood in-vitro; Evaluation of the anticoagulant effect of Dabigatran in the Chandler Loop System; and Anticoagulation effect of Dabigatran in the Cardiopulmonary bypass circuit simulation. […]

[3] = test system: coagulation of human blood; test: Chandler Loop System, clot formation in circulating blood; format: biochemical; conditions: Idarucizumab added after 2 hours of circulation; immediate clotting of the blood in the loop
Method: as §1
(§2) Methods: Dabigatran was initially dissolved in 0.1 M HCL, followed by diluting 1:1 with DMSO/H2O to prepare four stock solutions: […]. […] Blood clotting was monitored for 120 minutes. […]

[4] = test system: coagulation of human blood; test: Thromboelastography, TEG 5000 rapid TEG test, clotting/reactive time (R); format: biochemical; conditions: human blood in vitro
Method: In the examples below, studies were carried out to examine effects of dabigatran on coagulation of human blood. The studies were approved by the Institutional Review Board (University of Rochester RSRB, Rochester, NY) and informed consent was obtained from all subjects. Six healthy non-pregnant donors between 18-70 years old were recruited for the study. Subjects were excluded from the recent infections, disorders of immune system, hematological disorders including prior history of clotting issues, malignancies. Current medications and herbal supplements were recorded. Standard phlebotomy procedures performed by trained personal were used to collect no more than 250 ml of whole blood in two months. […]
Methods: Dabigatran (CLEARSYNTH, Catalog No. CS-O-03403; CAS number 211914-51-1) was initially dissolved in 0.1M HCL to 16.6 mg/ml, followed by diluting to 240 μg/ml, using 50% DMSO. […] TEG 5000 (rapid TEG test) and ROTEM (ex-tem test) were used to measure anticoagulation and the corresponding reactive time (R) and coagulation time (CT) were recorded.
as §2
Each of the dabibatran-containing blood sample described above was examined for clotting time R measured by TEG in the manner described above.

Molecule	normal concentrations found in patients [1]	plasma levels of Dabigatran during the experimental procedure (Mass Spectrometry) [2]	reversal of the anticoagulation action of Dabigatran in the Chandler loop [3]	reversal of the anticoagulation effect of Dabigatran ([4]; 125 μg/ml Idarucizumab)	Idarucizumab concentration required to reverse the highest concentrations of Dabigatran ([4]; highest Dabigatran concentrations)
[H]/N=C(/N)c1ccc(NCc2nc3cc(C(=O)N(CCC(=O)O)c4ccccn4)ccc3n2C)cc1 [Dabigatran]	180 ng/mL	remain stable	–	–	–
B1	–	–	effectively reversed	successfully reversed	2-4 times normal plasma concentrations
